Measurements reported in article PMC8301893, “Identification of HSP47 Binding Site on Native Collagen and Its Implications for the Development of HSP47 Inhibitors” (Biomolecules, 2021).

Assays:
[1] = target: Collagen from calf skin (Sigma-Aldrich, Cat No: C9791) (calf) (UniProt P02453)
[2] = target: Integrin peptide 1 (GFOGER flanked by [GPP]5 at both ends); test: ELISA; solid-phase binding assay (SPBA): peptides coated at 10 µg/mL overnight at 4 °C on Immulon 2HB 96-well plates, blocked with TBS containing 5% BSA; 1 µg/mL recombinant HSP47 for 1 h at room temperature; HRP-conjugated anti-His antibody, TMB, A450; means of three independent experiments

Sequence of UniProt P02453 (P02453 162-1217, chain 1 of 2): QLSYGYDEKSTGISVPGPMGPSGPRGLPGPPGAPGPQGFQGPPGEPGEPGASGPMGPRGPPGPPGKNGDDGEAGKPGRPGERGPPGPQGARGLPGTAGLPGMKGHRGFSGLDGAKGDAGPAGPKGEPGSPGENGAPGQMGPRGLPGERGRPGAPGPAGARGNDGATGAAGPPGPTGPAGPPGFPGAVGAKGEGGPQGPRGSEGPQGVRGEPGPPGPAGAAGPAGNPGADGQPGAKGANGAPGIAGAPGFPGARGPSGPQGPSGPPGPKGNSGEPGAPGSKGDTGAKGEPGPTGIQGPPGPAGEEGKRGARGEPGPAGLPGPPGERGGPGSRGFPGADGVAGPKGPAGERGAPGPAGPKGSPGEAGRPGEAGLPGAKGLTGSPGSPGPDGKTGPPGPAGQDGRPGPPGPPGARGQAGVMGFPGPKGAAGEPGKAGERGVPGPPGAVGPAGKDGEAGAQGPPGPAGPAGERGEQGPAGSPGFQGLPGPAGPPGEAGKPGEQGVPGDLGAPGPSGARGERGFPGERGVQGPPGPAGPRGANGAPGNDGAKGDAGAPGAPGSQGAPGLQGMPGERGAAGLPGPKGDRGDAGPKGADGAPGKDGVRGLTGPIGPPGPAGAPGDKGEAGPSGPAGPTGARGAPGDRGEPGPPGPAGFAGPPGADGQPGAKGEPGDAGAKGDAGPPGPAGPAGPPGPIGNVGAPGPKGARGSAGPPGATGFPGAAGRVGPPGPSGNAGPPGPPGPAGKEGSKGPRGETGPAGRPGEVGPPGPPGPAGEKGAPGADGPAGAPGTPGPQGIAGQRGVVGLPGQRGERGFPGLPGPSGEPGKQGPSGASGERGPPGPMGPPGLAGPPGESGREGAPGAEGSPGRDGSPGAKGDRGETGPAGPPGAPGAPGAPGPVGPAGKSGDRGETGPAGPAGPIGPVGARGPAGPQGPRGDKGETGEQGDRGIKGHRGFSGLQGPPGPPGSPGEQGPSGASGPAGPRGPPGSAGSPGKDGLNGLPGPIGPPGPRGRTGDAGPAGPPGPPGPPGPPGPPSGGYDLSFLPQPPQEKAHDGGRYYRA
Sequence of UniProt P02453 (P02465 80-1117, chain 2 of 2, further chain): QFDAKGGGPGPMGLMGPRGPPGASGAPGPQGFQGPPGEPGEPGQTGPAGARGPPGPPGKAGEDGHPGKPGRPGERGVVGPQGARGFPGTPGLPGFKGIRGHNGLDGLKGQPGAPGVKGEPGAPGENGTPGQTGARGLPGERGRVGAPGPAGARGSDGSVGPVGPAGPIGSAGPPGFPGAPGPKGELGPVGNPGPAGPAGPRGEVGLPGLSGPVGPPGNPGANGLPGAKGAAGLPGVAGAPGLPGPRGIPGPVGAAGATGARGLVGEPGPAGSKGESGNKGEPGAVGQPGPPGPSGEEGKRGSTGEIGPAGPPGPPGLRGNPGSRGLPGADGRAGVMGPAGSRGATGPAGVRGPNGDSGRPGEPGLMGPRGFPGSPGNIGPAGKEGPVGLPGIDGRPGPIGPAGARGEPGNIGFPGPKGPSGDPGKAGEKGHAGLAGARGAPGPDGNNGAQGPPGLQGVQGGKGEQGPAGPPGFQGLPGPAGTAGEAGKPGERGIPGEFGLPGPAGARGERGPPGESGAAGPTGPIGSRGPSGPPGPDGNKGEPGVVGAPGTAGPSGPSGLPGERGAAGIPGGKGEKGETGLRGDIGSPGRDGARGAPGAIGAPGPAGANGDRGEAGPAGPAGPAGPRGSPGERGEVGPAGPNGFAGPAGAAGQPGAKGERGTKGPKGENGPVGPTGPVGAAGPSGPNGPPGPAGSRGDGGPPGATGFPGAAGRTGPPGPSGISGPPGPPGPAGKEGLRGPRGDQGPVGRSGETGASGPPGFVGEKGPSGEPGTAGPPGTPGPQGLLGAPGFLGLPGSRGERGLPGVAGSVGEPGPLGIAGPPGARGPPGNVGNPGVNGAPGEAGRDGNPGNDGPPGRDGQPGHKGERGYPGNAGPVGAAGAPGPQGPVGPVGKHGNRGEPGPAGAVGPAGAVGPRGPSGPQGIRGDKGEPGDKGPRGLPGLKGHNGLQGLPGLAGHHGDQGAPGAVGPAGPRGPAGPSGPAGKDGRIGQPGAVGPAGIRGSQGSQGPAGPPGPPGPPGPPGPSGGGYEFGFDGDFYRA

IC50 of the small molecule Com II against HSP47 (2.6 μM) in the turbidity assay of collagen fibril formation [1]: 50 to 100 µM
IC50 of the small molecule Hs1 against HSP47 (2.6 μM) in the turbidity assay of collagen fibril formation [1]: 97 µM
IC50 of the small molecule Hs55 against HSP47 (2.6 μM) in the turbidity assay of collagen fibril formation [1]: 55 µM
Mean A450 [2]: > 2 A450
B1: human HSP47 (heat shock protein 47), amino acids 19-418, C-terminal His-tag (natural protein)
chain: AEVKKPAAAAAPGTAEKLSPKAATLAERSAGLAFSLYQAMAKDQAVENILVSPVVVASSLGLVSLGGKATTASQAKAVLSAEQLRDEEVHAGLGELLRSLSNSTARNVTWKLGSRLYGPSSVSFADDFVRSSKQHYNCEHSKINFRDKRSALQSINEWAAQTTDGKLPEVTKDVERTDGALLVNAMFFKPHWDEKFHHKMVDNRGFMVTRSYTVGVMMMHRTGLYNYYDDEKEKLQIVEMPLAHKLSSLIILMPHHVEPLERLEKLLTKEQLKIWMGKMQKKAVAISLPKGVVEVTHDLQKHLAGLGLTEAIDKNKADLSRMSGKKDLYLASVFHATAFELDTDGNPFDQDIYGREELRSPKLFYADHPFIFLVRDTQSGSLLFIGRLVRPKGDKMRDEL
